# Substitutions are numbered along the chain they refer to. Names may count otherwise.
# B1: Fab VH5-51_IGHD5-18*01>3_IGHJ4*01 G100K/G104T G24T/S28R/G35V & V3-4_IGLJ1*01 (Fab, V domains shown)
# VH: EVQLVQSGAEVKKPGESLKISCKTSGYRFTSYWIVWVRQMPGKGLEWMGIIYPGDSDTRYSPSFQGQVTISADKSISTAYLQWSSLKASDTAMYYCARRKYSYTYDYFDYWGQGTLVTVSS
# VL: QTVVTQEPSFSVSPGGTVTLTCGLSSGSVSTSYYPSWYQQTPGQAPRTLIYSTNTRSSGVPDRFSGSILGNKAALTITGAQADDESDYYCVLYMGSGISYVFGTGTKVTVL
# notes: Fab made in E. coli: VH on CH1 with His6 and Flag tags (Plasmid A), VL on lambda CL (Plasmid E); also called H: KT TRV & L: wt
# B2: Fab VH1-46_IGHD6-6*01_IGHJ1*01 S102A/S103P/S104F/H111F G56A & L6_IGKJ1*01 (Fab, V domains shown)
# VH: QVQLVQSGAEVKKPGASVKVSCKASGYTFTSYYMHWVRQAPGQGLEWMGIINPSGASTSYAQKFQGRVTMTRDTSTSTVYMELSSLRSEDTAVYYCAREEYAPFSAEYFQFWGQGTLVTVSS
# VL: not shown
# notes: Fab made in E. coli: VH on CH1 with His6 and Flag tags (Plasmid A), VL on kappa CL (Plasmid C); also called H: APFF G56A & L: wt
# B3: Fab VH1-46_IGHD6-6*01_IGHJ1*01 S102A/S103P/S104F/H111F S54A & L6_IGKJ1*01 S28N/S30D/S31H (Fab, V domains shown)
# VH: B2 VH with S54A, A56G
# VL: EIVLTQSPATLSLSPGERATLSCRASQNVDHYLAWYQQKPGQAPRLLIYDASNRATGIPARFSGSGSGTDFTLTISSLEPEDFAVYYCQQRSNWPPWTFGQGTKVEIKR
# notes: Fab made in E. coli: VH on CH1 with His6 and Flag tags (Plasmid A), VL on kappa CL (Plasmid C); also called H: APFF S54A & L: NDH
# B4: Fab VH1-46_IGHD6-6*01_IGHJ1*01 S102A/S103P/S104F/H111F G56A & L6_IGKJ1*01 S28N/S30D/S31H (Fab, V domains shown)
# VH: B2 VH
# VL: B3 VL
# notes: Fab made in E. coli: VH on CH1 with His6 and Flag tags (Plasmid A), VL on kappa CL (Plasmid C); also called H: APFF G56A & L: NDH
# B5: Fab VH5-51_IGHD5-18*01>3_IGHJ4*01 G100K/G104T G24T/S28R/G35V & V3-4_IGLJ1*01 V91L/S96P (Fab, V domains shown)
# VH: B1 VH
# VL: B1 VL with V91L, S96P
# notes: Fab made in E. coli: VH on CH1 with His6 and Flag tags (Plasmid A), VL on lambda CL (Plasmid E); also called H: KT TRV & L: LP
# B6: Fab VH5-51_IGHD5-18*01>3_IGHJ4*01 G100K/G104T G24T/S28R/G35V & V3-4_IGLJ1*01 V91L/S96P S52G (Fab, V domains shown)
# VH: B1 VH
# VL: B1 VL with S52G, V91L, S96P
# notes: Fab made in E. coli: VH on CH1 with His6 and Flag tags (Plasmid A), VL on lambda CL (Plasmid E); also called H: KT TRV & L: LP S52G
# B7: Fab VH5-51_IGHD5-18*01>3_IGHJ4*01 G100K/G104T G24T/S28R/G35V & V3-4_IGLJ1*01 V91L/S96P S52M (Fab, V domains shown)
# VH: B1 VH
# VL: B1 VL with S52M, V91L, S96P
# notes: Fab made in E. coli: VH on CH1 with His6 and Flag tags (Plasmid A), VL on lambda CL (Plasmid E); also called H: KT TRV & L: LP S52M
# Biological target: T1, recombinant human DLL4 (Cat# 1506-D4/CF, R&D Systems) (human, UniProt Q9NR61 27-529)
# T1 construct: Bought protein; also called hDLL4; rHuman DLL4
# Experiment: ELISA, DLL4 coated, Fab 20 nM
# Experimental: (§1) The plate was blocked by adding 1% BSA in Tris-buffered Saline Tween (TBST) and incubating for 1 hour at room temperature followed by washing 2 times with 150 μl TBST. A Fab antibody was serially diluted in 1% BSA in PBS. A 50 μl aliquot of each serial dilution was added, in triplicate, to each well and the plate was incubated for 1 hour at room temperature followed by washing 2 times with TBST. 50 μl of either goat anti-human kappa HRP conjugated secondary antibody (Cat # A7164-1 mL, Sigma-Aldrich) or goat anti-human lambda HRP conjugated secondary antibody (Cat # L1645-1 ml, Sigma-Aldrich), diluted 1:1000 in 1% BSA in PBS, was added to each well and the plate was incubated for 30 minutes at room temperature followed by washing 3 times with 200 μl TBST. Finally, 50 μl TMB one-component reagent (Cat # TMBW-1000-01, BioFax) was added and allowed to develop for 2 minutes at room temperature. The reaction was immediately halted by the addition of 50 μl 0.5M H₂SO₄ and the absorbance at 450 nm was measured using an ELISA plate reader.
row,ELISA absorbance at 450 nm [A450],Binder
1,0.054,B1

# Biological target: T1, recombinant human DLL4 (Cat# …)
# Experiment: ELISA, DLL4 coated, Fab 50 nM
# Experimental: as §1
row,ELISA absorbance at 450 nm [A450],Binder
1,0.301,B2
2,0.154,B3
3,0.366,B4

# Biological target: T1, recombinant human DLL4 (Cat# …)
# Experiment: ELISA, DLL4 coated, Fab 75 nM
row,ELISA absorbance at 450 nm [A450],Binder
1,0.399,B2
2,0.212,B3
3,0.543,B4

# Biological target: T1, recombinant human DLL4 (Cat# …)
# Experiment: ELISA, DLL4 coated, Fab 25 nM
# Method in brief: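 Colorimetric ELISA: HRP goat anti-human kappa or lambda (1:1000) detects Fab bound during a 1 h room-temperature incubation of serial dilutions; TMB develops 2 min before 0.5M H₂SO₄ stop and 450 nm read.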
row,ELISA absorbance at 450 nm [A450],Binder
1,0.26,B1
2,0.58,B5
3,0.9,B6
4,0.59,B7

# Biological target: T1, recombinant human DLL4 (Cat# …)
# Experiment: ELISA, DLL4 coated, Fab 50 nM
# Remark: another data set of the same source
# Experimental: (§2) In this example, an ELISA binding assay was used to assess the dose-dependent binding of Fab antibodies to recombinant human DLL4 and recombinant mouse DLL4.
# as §1
row,ELISA absorbance at 450 nm [A450],Binder
1,0.32,B1
2,0.81,B5
3,1.02,B6
4,0.8,B7

# Biological target: T1, recombinant human DLL4 (Cat# …)
# Experiment: ELISA, DLL4 coated, Fab 100 nM
row,ELISA absorbance at 450 nm [A450],Binder
1,0.338,B2
2,0.213,B3
3,0.453,B4

# Biological target: T1, recombinant human DLL4 (Cat# …)
# Experiment: ELISA, DLL4 coated, Fab 100 nM
# Remark: another data set of the same source
# Experimental: as §1
row,ELISA absorbance at 450 nm [A450],Binder
1,0.16,B1
2,0.34,B5
3,0.69,B6
4,0.24,B7

# Biological target: T1, recombinant human DLL4 (Cat# …)
# Experiment: ELISA, DLL4 coated, Fab 100 nM
# Remark: another data set of the same source
# Experimental: as §2, §1
row,ELISA absorbance at 450 nm [A450],Binder
1,0.45,B1
2,1,B5
3,1.14,B6
4,1.01,B7

# Biological target: T1, recombinant human DLL4 (Cat# …)
# Experiment: ELISA, DLL4 coated, Fab 0.74 nM
# Experimental: as §1
row,ELISA absorbance at 450 nm [A450],Binder
1,0.002,B1

# Biological target: T1, recombinant human DLL4 (Cat# …)
# Experiment: ELISA, DLL4 coated, Fab 2.22 nM
# Experimental: as §1
row,ELISA absorbance at 450 nm [A450],Binder
1,0,B1

# Biological target: T1, recombinant human DLL4 (Cat# …)
# Experiment: ELISA, DLL4 coated, Fab 6.67 nM
# Experimental: as §1
row,ELISA absorbance at 450 nm [A450],Binder
1,0.023,B1

# Biological target: T1, recombinant human DLL4 (Cat# …)
# Experiment: ELISA, DLL4 coated, Fab 0.14 nM
# Experimental: as §1
row,ELISA absorbance at 450 nm [A450],Binder
1,0,B1
2,0.03,B5
3,0.02,B6
4,0.02,B7

# Biological target: T1, recombinant human DLL4 (Cat# …)
# Experiment: ELISA, DLL4 coated, Fab 0.41 nM
# Experimental: as §1
row,ELISA absorbance at 450 nm [A450],Binder
1,0.01,B1
2,0.02,B5
3,0.01,B6
4,0.03,B7

# Biological target: T1, recombinant human DLL4 (Cat# …)
# Experiment: ELISA, DLL4 coated, Fab 1.23 nM
# Experimental: as §1
row,ELISA absorbance at 450 nm [A450],Binder
1,0.01,B1
2,0.03,B5
3,0.03,B6
4,0.03,B7

# Biological target: T1, recombinant human DLL4 (Cat# …)
# Experiment: ELISA, DLL4 coated, Fab 3.70 nM
# Experimental: as §1
row,ELISA absorbance at 450 nm [A450],Binder
1,0.03,B1
2,0.03,B5
3,0.06,B6
4,0.03,B7

# Biological target: T1, recombinant human DLL4 (Cat# …)
# Experiment: ELISA, DLL4 coated, Fab 12.5 nM
# Experimental: as §2, §1
row,ELISA absorbance at 450 nm [A450],Binder
1,0.23,B1
2,0.45,B5
3,0.63,B6
4,0.41,B7

# Biological target: T1, recombinant human DLL4 (Cat# …)
# Experiment: ELISA, DLL4 coated, Fab 11.11 nM
row,ELISA absorbance at 450 nm [A450],Binder
1,0.04,B1
2,0.07,B5
3,0.17,B6
4,0.06,B7

# Biological target: T1, recombinant human DLL4 (Cat# …)
# Experiment: ELISA, DLL4 coated, Fab 33.33 nM
# Experimental: as §1
row,ELISA absorbance at 450 nm [A450],Binder
1,0.08,B1
2,0.19,B5
3,0.35,B6
4,0.12,B7

# Biological target: T1, recombinant human DLL4 (Cat# …)
# Experiment: SPR (ProteOn), hDLL4 amine-coupled on chip
# Experimental: In this example, the binding affinities of selected anti-DLL4 Fabs to recombinant human DLL4 (hDLL4, Cat# 1506-D4/CF, R&D Systems) were analyzed using Surface Plasmon Resonance (SPR) (Biosensor Tools, Salt Lake City, Utah). The Fabs analyzed include germline-derived antibodies and germline-modified DLL4 antibodies. Recombinant hDLL4 was immobilized on a SPR chip using amine coupling at three different surface densities. The Fabs were serially diluted 3-fold, with an initial concentration of 1 μM. Binding studies were run on a ProteOn system using a GLM sensor chip in 10 mM HEPES, pH 7.4, 150 mM NaCl, 0.01% Tween-20, and 0.1 mg/ml BSA at 25° C. The response data from each surface was globally fit to determine the binding constants.
Kd [nM],koff [s⁻¹],kon [M⁻¹ s⁻¹],Binder
36.2,0.0717,2.09e+06,B1
3.3,0.036,1.1e+07,B5
5,0.0147,2.96e+06,B6
